The values that follow come from US20230340071A1 (published 2023).

The target of assay [1] is T1, mouse IL-2 beta receptor (mouse, UniProt P16297 27-240).
T1 construct: also called mIL2RB; beta part of mIL2RBG
T1 sequence (looked up): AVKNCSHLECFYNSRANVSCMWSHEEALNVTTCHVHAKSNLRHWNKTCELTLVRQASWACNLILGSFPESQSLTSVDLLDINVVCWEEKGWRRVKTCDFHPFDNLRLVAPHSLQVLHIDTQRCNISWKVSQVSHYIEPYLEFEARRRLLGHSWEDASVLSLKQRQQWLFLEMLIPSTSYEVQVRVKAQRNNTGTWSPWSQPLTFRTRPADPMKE
The experiment in a line: BLI competition: mIL2RG on sensor, dilutions of P4 + 20 nM Neo-2/15; competitor Neo-2/15; read-out binding to mIL2RBG. Here is the method:
(§1) All samples were prepared using HBS-EP+buffer from GE Healthcare, which contains 10 mM HEPES, 150 mM NaCl, 3 mM EDTA and 0.05% v/v surfactant P20, pH 7.4. Data were acquired at 30° C. using an Octet RED96e system (ForteBio) and processed using the instrument's integrated software. IC50 values were estimated from response vs antagonist concentration plots.

Assay [2] concerns the target T2, human IL-2 receptor (IL-2Rβγc) on cells (human, UniProt P14784 27-551; P31785 23-369).
T2 sequence 1: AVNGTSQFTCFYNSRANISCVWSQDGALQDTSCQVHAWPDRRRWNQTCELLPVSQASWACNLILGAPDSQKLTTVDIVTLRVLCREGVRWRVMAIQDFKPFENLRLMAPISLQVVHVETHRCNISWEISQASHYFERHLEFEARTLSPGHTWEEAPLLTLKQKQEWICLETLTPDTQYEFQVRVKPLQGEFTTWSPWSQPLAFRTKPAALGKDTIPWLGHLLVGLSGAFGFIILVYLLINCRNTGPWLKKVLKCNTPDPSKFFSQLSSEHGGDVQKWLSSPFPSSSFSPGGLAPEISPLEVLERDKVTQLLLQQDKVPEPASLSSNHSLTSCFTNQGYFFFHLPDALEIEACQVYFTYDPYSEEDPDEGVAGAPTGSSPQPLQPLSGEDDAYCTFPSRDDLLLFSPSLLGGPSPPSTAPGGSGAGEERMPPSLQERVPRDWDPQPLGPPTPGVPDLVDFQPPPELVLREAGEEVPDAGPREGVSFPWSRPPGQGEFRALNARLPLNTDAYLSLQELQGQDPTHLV
T2 sequence 2: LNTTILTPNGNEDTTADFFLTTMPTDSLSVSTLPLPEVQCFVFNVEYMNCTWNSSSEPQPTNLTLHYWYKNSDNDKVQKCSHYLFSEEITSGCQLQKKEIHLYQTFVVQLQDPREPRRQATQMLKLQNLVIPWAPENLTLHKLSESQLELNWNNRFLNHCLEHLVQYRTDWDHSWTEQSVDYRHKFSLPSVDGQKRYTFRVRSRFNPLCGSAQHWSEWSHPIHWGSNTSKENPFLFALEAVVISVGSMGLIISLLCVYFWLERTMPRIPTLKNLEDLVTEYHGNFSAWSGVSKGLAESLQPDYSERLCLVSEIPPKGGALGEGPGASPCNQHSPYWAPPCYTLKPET
The experiment in a line: cell-based or functional assay.

The target of another assay is T3, Biotinylated hIL2RG (human, UniProt P31785 23-262, limits assumed, biotinylated (site not stated)).
T3 construct: also called human common gamma receptor (hIL2RG); hIL-2Rγc
T3 sequence: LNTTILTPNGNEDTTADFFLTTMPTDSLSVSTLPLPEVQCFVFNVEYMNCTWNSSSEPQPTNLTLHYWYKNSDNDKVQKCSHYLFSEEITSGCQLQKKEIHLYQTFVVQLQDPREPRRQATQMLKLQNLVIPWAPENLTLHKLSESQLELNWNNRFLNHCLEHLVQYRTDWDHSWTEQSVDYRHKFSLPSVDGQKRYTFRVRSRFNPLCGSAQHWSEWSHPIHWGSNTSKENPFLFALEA
The experiment in a line: BLI (Octet RED96), biotinylated hIL2RG on streptavidin sensors, 200 nM protein + 200 nM hIL2RB. On the procedure:
Biotinylated hIL2RG molecules were immobilized to Streptavidin sensors (SA, ForteBio) at 2 μg/mL in binding buffer (10 mM HEPES, pH 7.4, 150 mM NaCl, 3 mM EDTA, 0.05% surfactant P20, 0.5% non-fat dry milk). After baseline measurement in the binding buffer alone, the binding kinetics were monitored by dipping the biosensors in wells containing 200 nM of protein and 200 nM of hIL2RB for 300 sec. Data were collected in an Octet RED96 (ForteBio) and processed using the instrument's integrated software.

Assay [3] deals with T1, mouse IL-2 beta receptor. Description: method not stated.
Assay [4] concerns the target T4, hIL2RB-fc chimera (human, UniProt P14784 27-240).
T4 construct: also called hIL2 receptor beta; hIL-2Rβ; not shown: Fc part of the bought chimera (captured on anti-human IgG Fc biosensors)
T4 sequence: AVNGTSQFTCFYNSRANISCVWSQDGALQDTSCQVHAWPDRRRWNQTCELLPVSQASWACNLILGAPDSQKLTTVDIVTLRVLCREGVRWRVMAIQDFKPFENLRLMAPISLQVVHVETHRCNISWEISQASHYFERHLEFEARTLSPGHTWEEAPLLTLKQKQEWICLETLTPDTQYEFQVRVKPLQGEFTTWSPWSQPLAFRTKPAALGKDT
Description: BLI (Octet RED96e), hIL2RB-fc (Symansis) on anti-human IgG Fc sensors. On the procedure:
For this purpose, sensors were soaked in samples containing 20 nM of hIL2RB-fc chimera (Symansis) for 300 sec. […] Finally, sensors were removed from the protein samples and dipped in buffer solutions to promote and measure dissociation (1500 sec). The buffer used to prepare all the samples and soak the sensors was HBS-EP+from GE Healthcare, which contains 10 mM HEPES, 150 mM NaCl, 3 mM EDTA and 0.05% v/v surfactant P20, pH 7.4. Data were acquired at 30° C. using an Octet RED96e system (ForteBio) and processed using the instrument's integrated software. Kinetics were fitted to a 1:1 binding model after subtracting a buffer signal baseline and the Kd values were calculated.
In general terms: In BLI a coated tip is dipped into the sample, and binding shifts an interference pattern.

The target in the next assay is T5, Biotinylated hIL2RB (UniProt P14784 27-240, biotinylated (site not stated)).
T5 chain: T4 sequence
Description: BLI.

A further assay addresses T6, hIL2RG-fc chimera (human, UniProt P31785 23-262).
T6 construct: also called hIL2G; hIL2 receptor gamma; not shown: Fc part of the bought chimera (captured on anti-human IgG Fc biosensors)
T6 sequence: T3 sequence
The experiment in a line: BLI (Octet RED96e), hIL2RG-fc on anti-human IgG Fc sensors, 200 nM P4 + 200 nM hIL2RB-fc. On the procedure: All samples were prepared using HBS-EP+ buffer from GE Healthcare, which contains 10 mM HEPES, 150 mM NaCl, 3 mM EDTA and 0.05% v/v surfactant P20, pH 7.4. Data were acquired at 30° C. using an Octet RED96e system (ForteBio) and processed using the instrument's integrated software.

The target of assay [5] is T2, human IL-2 receptor (IL-2Rβγc) on cells. Description: cell-based or functional assay. The source holds these as a separate data set.
The target in assay [6] is T7, hIL-2RBG (biotinylated hIL2RG on the sensor with hIL2RB in solution) (UniProt P14784 27-240; P31785 23-262, biotinylated (site not stated)).
T7 chain 1: T4 sequence
T7 chain 2: T3 sequence
The experiment in a line: BLI competition, inhibition of hIL-2 binding.

The target in assay [7] is T4, hIL2RB-fc chimera. Description: BLI competition: hIL2RG-fc on sensor, dilutions of P4 + 20 nM Neo-2/15 + 50 nM hIL2RB-fc; competitor Neo-2/15; read-out binding to hIL2RBG. On the procedure:
as §1

B1: Protein 4 (P4) (designed binder)
chain: PKKKIQLYAEHALYDAEMILKIVKTNSPPAEEELEDYAFNFELILEEIARLFESGDQKDEAEKAKRMKEWMKRIKTTASEDEQEEMANRIRKILEEWIRS
notes: P2 with H8Y and K33E; N-terminal 6xHis tag and thrombin site in the expression vector; also called S4
In the case of B1, the IC50 is 67.6 nM in the assay with mouse IL-2 beta receptor [1], 88 nM in assay [6] and 0.9 nM with hIL2RB-fc chimera [7]. In assay [2], the “Binding Inhibition IC50 (inhibition of hIL-2 pSTAT5 signaling, human pan T cells, 0.1 nM hIL2)” value is 0.1 nM. In addition, the “Binding Inhibition IC50 (inhibition of hIL-2 pSTAT5 signaling, human pan T cells, 1 nM hIL2)” value in [2] came to 0.45 nM. In assay [2], the “Binding Inhibition IC50 (inhibition of hIL-2 pSTAT5 signaling, human pan T cells, 10 nM hIL2)” value was 3.3 nM. In addition, the binding result with Biotinylated hIL2RG and in the assay with hIL2RG-fc chimera was “no binding (tested: 200 nM)” in each case. The Kd with mouse IL-2 beta receptor [3] was 70.6 nM; with hIL2RB-fc chimera [4], 0.06 nM; with Biotinylated hIL2RB, below 1 nM. For the same molecule, the “Signaling Inhibition IC50 (1 nM hIL-2, pSTAT5, CD4+ T cells)” value in [5] worked out at 1.46 nM. In addition, the “Signaling Inhibition IC50 (1 nM hIL-2, pSTAT5, CD8+ T cells)” value in assay [5] worked out at 0.3 nM. Besides, in assay [5], the “Signaling Inhibition IC50 (1 nM hIL-2, pSTAT5, all T cells)” value was 0.49 nM.

In general, IC50 refers to the midpoint of a concentration-inhibition curve. As a reminder, the Kd is the constant that tells how readily two partners part at equilibrium.
